Laboratory results: patent publication US20250066499A1 (SUNSHINE GUOJIAN PHARMACEUTICAL SHANGHAI, published 2025)
Positions count from the first letter of the chain named.

Legend:
CD73-ND-his = target: T1, CD73-ND-his (human, UniProt P21589 27-317); assay: ELISA; decline multiple of EC50 against CD73-ND
T1 construct: Biotinylated and captured on streptavidin in the ELISA
T1 sequence: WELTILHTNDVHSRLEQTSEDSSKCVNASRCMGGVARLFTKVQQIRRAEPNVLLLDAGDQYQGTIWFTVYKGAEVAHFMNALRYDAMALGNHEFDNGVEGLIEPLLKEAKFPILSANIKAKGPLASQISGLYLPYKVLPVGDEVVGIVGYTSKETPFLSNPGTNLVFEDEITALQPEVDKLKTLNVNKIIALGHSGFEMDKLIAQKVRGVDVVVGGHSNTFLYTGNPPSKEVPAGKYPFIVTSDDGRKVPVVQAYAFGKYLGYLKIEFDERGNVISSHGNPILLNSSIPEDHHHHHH
Description: (§1) The ELISA plates were coated with SA protein diluted to 1.5 μg/mL in coating buffer (50 mM carbonate coating buffer, pH 9.6) and incubated overnight at 4° C. The supernatant was discarded, and the plates were washed three times with PBST. Then, 5% skimmed milk powder prepared with PBS was added for blocking and the plates were incubated for 2 h at 37° C. After washing the plates once with PBST, CD73-biotin protein (prepared by biotinylating CD73-His protein according to the EZ-Link NHS-Biotin Reagent instructions) was diluted to 0.5 μg/mL and added at 100 μL/well for incubation at room temperature for 1 h. The plates were washed three times with PBST, and the prepared murine-derived monoclonal antibodies against human CD73 were serially diluted with 1% BSA buffer prepared with PBST and added to the ELISA plates at 100 μl/well. The plates were incubated at 37° C. for 1 h. After washing the plates three times with PBST, HRP-labeled goat anti-mouse IgG secondary antibody was added and the plates were incubated for 30 min at 37° C. After washing the plates three times with PBST, the residual droplets were patted dry on absorbent paper as much as possible. Then, 100 μl of TMB color developing solution was added to each well, and the plates were incubated in the dark at room temperature for 5 min for color development. Subsequently, 50 μl of 2M H₂SO₄ stop solution was added to each well to terminate the substrate reaction. The OD values were read at 450 nm using a multimode microplate reader to analyze the binding ability of the tested antibodies to the target antigen human CD73-His.
(§2) Referring to the experimental method in Example 3, the affinity of 48A11-HuV33 for various mutant proteins of CD73-ND was determined. The SA protein was diluted to 1 μg/mL for coating the ELISA plates, and the biotinylated CD73 protein (CD73-biotin) was used at a concentration of 0.1 μg/mL.

CD73-ND-L138A = target: T2, CD73-ND-L138A (human, UniProt P21589 27-317); assay: ELISA; decline multiple of EC50 against CD73-ND
T2 construct: Alanine mutant of CD73-ND
T2 sequence: T1 sequence with L138A
Description: as §1, §2

CD73-ND-Y135A = target: T3, CD73-ND-Y135A (human, UniProt P21589 27-317); assay: ELISA; decline multiple of EC50 against CD73-ND
T3 construct: Alanine mutant of CD73-ND
T3 sequence: T1 sequence with Y135A
Description: as §1, §2

CD73-ND-V137A = target: T4, CD73-ND-V137A (human, UniProt P21589 27-317); assay: ELISA; decline multiple of EC50 against CD73-ND
T4 construct: Alanine mutant of CD73-ND
T4 sequence: T1 sequence with V137A
Description: as §1, §2

CD73-ND-K182A = target: T5, CD73-ND-K182A (human, UniProt P21589 27-317); assay: ELISA; decline multiple of EC50 against CD73-ND
T5 construct: Alanine mutant of CD73-ND
T5 sequence: T1 sequence with K182A
Description: as §1, §2

CD73-CD-his = target: T6, CD73-CD-his (human, UniProt P21589 337-549); assay: ELISA as in Example 3, antigen CD73-CD-his, antibody titrated, absorbance 450 nm
T6 construct: it fits residue S549 of P21589 (27+522)
T6 sequence: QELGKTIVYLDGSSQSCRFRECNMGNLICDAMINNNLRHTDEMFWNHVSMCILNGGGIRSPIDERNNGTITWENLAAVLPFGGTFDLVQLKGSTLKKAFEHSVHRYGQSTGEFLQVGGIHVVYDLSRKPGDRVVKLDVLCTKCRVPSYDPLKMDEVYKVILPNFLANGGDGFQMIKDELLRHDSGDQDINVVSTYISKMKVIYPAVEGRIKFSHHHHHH

B1: 48A11-HuV33 (antibody, human IgG4, V domains shown)
VH: QVQLVQSGAEVKKPGASVKVSCKASGYTFTSYWMHWVRQAPGQGLEWIGEINPSIGRTNYNEKFKSRVTLTRDTSTSTAYMELSSLRSEDTAVYYCARRVYGTMDYWGQGTLVTVSS
VL: DIQMTQSPSSLSASVGDRVTITCKASQDINSYLSWFQQKPGKSPKLLIYRANIWVDGVPSRFSGSGSGQDYTFTISSLQPEDIATYYCLQYDELYTFGQGTKVEIK
notes: Humanized
Q: What does the source list for B1?
A: Ratio(EC50) (CD73-ND-his): 1 fold; Ratio(EC50) (CD73-ND-L138A): 1.2 fold; Ratio(EC50) (CD73-ND-Y135A): 1.1 fold; Ratio(EC50) (CD73-ND-V137A): 5.9 fold; Ratio(EC50) (CD73-ND-K182A): 1 fold; binding result (CD73-CD-his): no binding (tested: 10 nM)
